# ± gives the uncertainty stated by the source.
# Assay: amyloid nucleation score (Sup35N fusion, yeast selection) (log enrichment); library NNK1; higher = more nucleation; inactive = no reads after selection
# In short: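 Sup35N was fused to peptides of 20 random codons and expressed in psi-negative yeast, which were induced with 100 μM copper sulfate for 24 hours and then grown on medium lacking adenine and uracil for 7 days at 30°C. Plasmid inserts from input and output were sequenced on Illumina. The nucleation score is the DiMSum log enrichment of output over input reads, centred on the mode score of non-aggregating sequences. Sequences with under 100 input reads were left out, and random libraries had three technical output replicates.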
row,Substance,amyloid nucleation score
1,HVMTFEVSFRTGCKDVINWV,1.03 ± 0.18
2,HVQIILYLSFKTRRLVDLCL,inactive
3,HVSAWWLTSNV,-0.205 ± 0.37
4,HWLSAMIGVPEHGH,-0.121 ± 0.33
5,HWLTV,-1.27 ± 1.6
6,HWSSSS,-0.745 ± 0.66
7,HWVGFLRYTSIKDDHQFGSK,-0.323 ± 0.51
8,HYGVDEAFGRWDGVLMCQKV,-0.134 ± 0.4
9,HYLISSCWIIRSGWADGTGR,1.01 ± 0.15
10,HYSHAWTVSRLMWNRDERGA,1.59 ± 0.2
11,HYTFKDCSSPLSWEPQPLFP,-0.32 ± 0.83
12,HYYVLCFRVHLGQ,0.176 ± 1.1
13,IALSTYCRNTDSPSSSGSCY,-0.245 ± 0.77
14,IAMLSCQRWMCQQTVTSKF,-1.29 ± 0.77
15,IANGHKSSRCMQKDSSTS,0.586 ± 0.35
16,IASFKWGFLMDYNLYVSSSG,0.261 ± 0.38
17,IAWFYRGPIKLLRLYIGGIW,-0.042 ± 0.73
18,ICDRAWRCFKTKSTQPVTVS,-0.19 ± 0.36
19,ICGTCCMPNLFVHHYIFLSP,6.708 ± 0.063
20,ICIYNSGIGLTGVRVWVQGL,inactive
21,ICKFDLALKFRGRYTEAEWC,1 ± 0.32
22,ICMILVPFMPT,0.976 ± 1.1
23,ICVNESKKVFQVFIANIGRG,4.86 ± 0.07
24,IDEYTDMN,0.146 ± 0.42
25,IDHNLSGLVC,0.544 ± 0.97
26,IDKGLHALLSTLLSINVSFC,2.95 ± 0.094

row,Substance,amyloid nucleation score
1,IDVGSHFCSFQEHKACGTSL,0.31 ± 0.47
2,IDYRIDCVCFLCSVREEAYR,7.278 ± 0.047
3,IEAYYGIPDVKHMLVYLRQD,-0.284 ± 0.7
4,IENRFLGVKLIAGCSHGLWS,-0.241 ± 0.57
5,IEQSNMVTARRLELLRSAVS,0.339 ± 0.54
6,IEVDPTNSKKSAPDTHLGSL,-0.001 ± 0.95
7,IEVKSWYATPNFGSQLSKRD,0.274 ± 0.45
8,IEYCIVSFQSMGE,0.326 ± 0.46
9,IFDYSTLECESDEGEAEGMS,0.572 ± 0.81
10,IFHLCFLKGNGSFMLYKRHT,-0.462 ± 0.51
11,IFILD,inactive
12,IFRFSNFR,5.822 ± 0.054
13,IFSIRFTLCGWPLLCHIMLL,-0.302 ± 0.31
14,IFTFSIVTSNATGYLW,2.29 ± 0.12
15,IFTRW,-0.741 ± 0.49
16,IGACFWRFIFVKLSTNL,-0.406 ± 0.36
17,IGATLAPLTMSLNRSSDESS,0.655 ± 0.64
18,IGCGGVPKNQCWGPERFLEW,-0.132 ± 0.57
19,IGDTI,0.302 ± 0.33
20,IGFEIHFMYALE,0.355 ± 1
21,IGGCWLLQMN,0.369 ± 0.44
22,IGGVFALHCRMNIAPGSHTL,2.38 ± 0.14
23,IGLMRLC,-0.608 ± 1.2
24,IGRMSYWGCRTLNNSPCGKF,-1.22 ± 1.7
25,IHGTMRGYWHMLFQELNIGV,-0.152 ± 0.54
26,IHQEIVNVNTIVCN,-0.147 ± 0.25

row,Substance,amyloid nucleation score
1,IHSAYLNAQRKVWATAKFKW,-0.639 ± 0.35
2,IHVAFHSLSQCGRCVYCSVL,3.25 ± 0.16
3,IHVTGCYLEPSAHF,inactive
4,IICISFWSVKLVDHPMVSNG,0.726 ± 0.75
5,IICSLW,0.614 ± 0.34
6,IIEFML,inactive
7,IIFWGLCICHPVLPTRGGWE,7.26 ± 0.084
8,IIGSEARLD,inactive
9,IIIRRISGGFAVPSYAHLHS,0.53 ± 0.32
10,IIKDDLRMCWDGKRYWNSLI,0.713 ± 0.32
11,IILRFVCDI,inactive
12,IIQRAM,0.09 ± 0.7
13,IIREFSEGWVISKLDQD,-0.446 ± 0.3
14,IITMIP,-0.514 ± 0.65
15,IIVIIVLLDLDVSWVDYEVM,-0.157 ± 0.78
16,IIVTSKQSTTYTHLVWERSG,-0.629 ± 0.69
17,IIWIRAVPLMTRNEGVCECG,-0.982 ± 1.8
18,IIWMSRRSSSLNEKGLKFNY,-0.548 ± 0.29
19,IIYDLLCYSWRMFWL,2.27 ± 0.1
20,IIYNAKE,0.367 ± 0.36
21,IKEFRYMLKRYLLWFVDLLL,0.762 ± 0.59
22,IKFERAIRSSVGKQRC,0.784 ± 0.71
23,IKMRWISFKCLPYCMFKNRI,-0.355 ± 0.35
24,IKSVVLS,0.043 ± 0.63
25,ILEEYYLCIWLEVAWHICHA,-0.571 ± 0.8
26,ILENTVCSIFVSVVIANVGL,1.94 ± 0.53

row,Substance,amyloid nucleation score
1,ILESCIWDITRLRWPYGSSW,0.741 ± 0.21
2,ILEYWSISKKPYMIVMGGRV,0.15 ± 0.34
3,ILFSNCSFLKSCYWFK,7.25 ± 0.085
4,ILFVG,-0.462 ± 0.42
5,ILGRYNNAVLGVGSEQWSVG,0.287 ± 0.46
6,ILIRNIMCSGSVSLSNLGSG,-0.134 ± 1
7,ILKELSKPGVQPVVS,0.575 ± 0.8
8,ILLELVASTVVLPLIT,0.165 ± 0.43
9,ILLMSNYYAVRQEEFDQLPV,inactive
10,ILNFRERL,-1.06 ± 0.43
11,ILRNDMSATVNM,0.97 ± 0.17
12,ILRPSSFNMVALDLNISLPK,4.82 ± 0.087
13,ILRTFVSSCVDVGTYSTTKC,-1.52 ± 2.4
14,ILSERHWVFELYGLCGWRRE,0.493 ± 0.52
15,ILTVLLISMWVMNHLIFLGL,-0.563 ± 1.4
16,ILVSYLSLPT,0.802 ± 0.42
17,ILYMWWVRPLVQAQENRRRY,-0.089 ± 0.39
18,ILYTNRMCLWSKTSNFLPLR,-0.318 ± 0.29
19,IMAGHFRL,3.69 ± 0.082
20,IMETHLFLTETGNLLSKMGD,inactive
21,IMLLAWQLSKMSSFVCKSTR,0.16 ± 0.74
22,INFARPVTILTYATFSVFGN,4.9 ± 0.082
23,ININGNVY,0.849 ± 1.1
24,INNGIQ,-0.047 ± 0.96
25,INNHKIDQTML,-0.541 ± 0.84
26,INRFTICTFHWTGFALNALS,2.26 ± 0.17

row,Substance,amyloid nucleation score
1,INSTEIPFDPAVKL,-0.908 ± 0.79
2,INTCCIRCFRQYGNFNKIKT,0.662 ± 1.1
3,INVMWRYSFWLEFQT,-0.442 ± 0.4
4,INYFQDD,-0.727 ± 1.4
5,INYGMRCYEE,-0.427 ± 1.2
6,INYHMVNLNVLAMC,2.17 ± 0.46
7,IPRGCRFKSRVTVKINSGAG,1.37 ± 0.9
8,IPYLN,1.15 ± 0.54
9,IQAMGGRMSRAV,-0.073 ± 0.77
10,IQWGEKNGCGHLGQFMWYDG,0.193 ± 0.58
11,IRCLGISRIFLVYRSVPFWI,0.413 ± 0.57
12,IRCRQQARTMYNKMEKMGRG,-0.433 ± 0.3
13,IRDDCTYYVSAE,0.634 ± 0.23
14,IRDRMLMCDGKRLNTLLEHI,0.145 ± 0.49
15,IRGTTRAFLANQGCDVLYTG,-0.865 ± 0.86
16,IRIKDTFESWYSLINEDLGH,inactive
17,IRKIS,-1.13 ± 1.7
18,IRLIKIPVKFKFVSTMCSGC,-0.1 ± 0.93
19,IRLKYSGHAILFHETKNKHA,0.511 ± 0.42
20,IRPINKYRIVLIWVSFVRGE,0.718 ± 0.73
21,IRSFPTV,0.075 ± 0.47
22,IRVGGIWRGCCGVDLCYLTI,-0.627 ± 0.61
23,ISAVGKYESDTVGPSKND,0.507 ± 1
24,ISDEIGIAIENKDSLRKGFR,0.002 ± 0.84
25,ISEVFD,-0.237 ± 0.24

# — the supplement of paper PMC12042874
